Assay results as given in paper PMC4367269, “Probing the Acceptor Active Site Organization of the Human Recombinant β1,4-Galactosyltransferase 7 and Design of Xyloside-based Inhibitors” (The Journal of Biological Chemistry, 2015).
Changes are numbered by the printed parent chain. Numbers in names are those of the source.

T1: hβ4GalT7 (GST-β4GalT7) (Homo sapiens, UniProt Q9UBV7)
T1 construct: gene B4GALT7; truncated soluble form lacking the first 60 N-terminal amino acids (transmembrane domain and part of stem), GST fusion (tag kept), pET-41a(+), E. coli BL21(DE3), glutathione-Sepharose purified
T1 sequence (Q9UBV7 61-327): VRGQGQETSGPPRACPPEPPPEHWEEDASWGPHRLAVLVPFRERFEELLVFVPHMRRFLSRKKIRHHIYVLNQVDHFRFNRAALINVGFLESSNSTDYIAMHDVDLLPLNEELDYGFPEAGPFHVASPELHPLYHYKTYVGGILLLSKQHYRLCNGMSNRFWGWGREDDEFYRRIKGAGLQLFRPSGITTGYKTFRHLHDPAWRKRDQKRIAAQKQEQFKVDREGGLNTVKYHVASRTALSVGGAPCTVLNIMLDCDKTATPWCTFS

B1: hβ4GalT7 (GST-β4GalT7) (Homo sapiens; H195R) (protein)
chain: T1 sequence (Q9UBV7 61-327) with H135R
notes: truncated soluble form lacking the first 60 N-terminal amino acids (transmembrane domain and part of stem), GST fusion (tag kept), pET-41a(+), E. coli BL21(DE3), glutathione-Sepharose purified
B2: hβ4GalT7 (GST-β4GalT7) (Homo sapiens; Y196F) (protein)
chain: T1 sequence (Q9UBV7 61-327) with Y136F
notes: as for B1
B3: hβ4GalT7 (GST-β4GalT7) (Homo sapiens; R270A) (protein)
chain: T1 sequence (Q9UBV7 61-327) with R210A
notes: as for B1
B4: hβ4GalT7 (GST-β4GalT7) (Homo sapiens; R270K) (protein)
chain: T1 sequence (Q9UBV7 61-327) with R210K
notes: as for B1
B5: hβ4GalT7 (GST-β4GalT7) (Homo sapiens; H195A) (protein)
chain: T1 sequence (Q9UBV7 61-327) with H135A
notes: as for B1
B6: hβ4GalT7 (GST-β4GalT7) (Homo sapiens; Y199F) (protein)
chain: T1 sequence (Q9UBV7 61-327) with Y139F
notes: as for B1
B7: hβ4GalT7 (GST-β4GalT7) (Homo sapiens; H195Q) (protein)
chain: T1 sequence (Q9UBV7 61-327) with H135Q
notes: as for B1
B8: hβ4GalT7 (GST-β4GalT7) (Homo sapiens; R226A) (protein)
chain: T1 sequence (Q9UBV7 61-327) with R166A
notes: as for B1
B9: hβ4GalT7 (GST-β4GalT7) (Homo sapiens; R226K) (protein)
chain: T1 sequence (Q9UBV7 61-327) with R166K
notes: as for B1
B10: hβ4GalT7 (GST-β4GalT7) (Homo sapiens) (protein)
chain: T1 sequence (Q9UBV7 61-327)
notes: as for B1

Biological target: T1, hβ4GalT7 (GST-β4GalT7)
Experiment: galactosyltransferase competition assay, HPLC-UV
Assay type: biochemical
Settings: 0.5 mM 4-MUX, 1 mM UDP-Gal, 10 mM MnCl2, 100 mM sodium cacodylate pH 7.0, 37 °C; IC50 and Ki not determined

Row | Molecule | % decrease of activity at the highest concentration (5 mM) [%]
1 | O[C@H]1[C@H](Oc2ccc3ccccc3c2)OCC[C@@H]1O [4H-Xyl-NP, Naphthyl-4-deoxy-β-D-xylopyranoside] | < 25

Substrate: O=c1ccn([C@@H]2O[C@H](COP(=O)(O)OP(=O)(O)O[C@H]3O[C@H](CO)[C@H](O)[C@H](O)[C@H]3O)[C@@H](O)[C@H]2O)c(=O)[nH]1
Experiment: galactosyltransferase assay, HPLC-UV
Assay type: biochemical, Homo sapiens
Settings: apparent, fixed 5 mM 4-MUX, 10 mM MnCl2, 100 mM sodium cacodylate pH 7.0, 37 °C
Description: (§1) galactosyltransferase assay, HPLC-UV on hβ4GalT7 (GST-β4GalT7)

Row | Molecule | Km [µM] | kcat [s⁻¹] | kcat/Km [M⁻¹ s⁻¹]
2 | B1 | 320 ± 20 | 1.49 ± 0.0217 | 4920
3 | B2 | 340 ± 60 | 0.5 ± 0.0183 | 1470
4 | B3 | 270 ± 10 | 0.773 ± 0.0033 | 3070
5 | B4 | 370 ± 20 | 0.812 ± 0.025 | 2320
6 | B5 | 400 ± 20 | 1.932 ± 0.162 | 4850
7 | B6 | 320 ± 20 | 1.2 ± 0.0967 | 4050
8 | B7 | 330 ± 20 | 1.62 ± 0.04 | 4920
9 | B8 | 340 ± 30 | 0.893 ± 0.0333 | 2850
10 | B9 | 290 ± 20 | 1.35 ± 0.0483 | 4700
11 | B10 | 220 ± 20 | 1.51 ± 0.0383 | 7080

Substrate: Cc1cc(=O)oc2cc(O[C@@H]3OC[C@@H](O)[C@H](O)[C@H]3O)ccc12
Experiment: galactosyltransferase assay, HPLC-UV
Assay type: biochemical, Homo sapiens
Settings: apparent, fixed 1 mM UDP-Gal, 10 mM MnCl2, 100 mM sodium cacodylate pH 7.0, 37 °C
Description: as §1

Row | Molecule | Km [µM] | kcat [s⁻¹] | kcat/Km [M⁻¹ s⁻¹]
12 | B1 | 350 ± 30 | 1.49 ± 0.0217 | 4030
13 | B2 | 1060 ± 60 | 0.5 ± 0.0183 | 467
14 | B3 | 600 ± 20 | 0.773 ± 0.0033 | 1200
15 | B4 | 540 ± 70 | 0.812 ± 0.025 | 1420
16 | B5 | 640 ± 20 | 1.932 ± 0.162 | 3000
17 | B6 | 590 ± 60 | 1.2 ± 0.0967 | 1880
18 | B7 | 550 ± 20 | 1.62 ± 0.04 | 2950
19 | B8 | 440 ± 50 | 0.893 ± 0.0333 | 1870
20 | B9 | 460 ± 10 | 1.35 ± 0.0483 | 2920
21 | B10 | 350 ± 20 | 1.51 ± 0.0383 | 4170

Biological target: T1, hβ4GalT7 (GST-β4GalT7)
Experiment: galactosyltransferase competition assay, HPLC-UV
Assay type: biochemical
Settings: not given
Description: galactosyltransferase competition assay, HPLC-UV on hβ4GalT7 (GST-β4GalT7)

Row | Molecule | IC50 [µM] | Ki [µM]
22 | Cc1cc(=O)oc2cc(O[C@@H]3OCC[C@H](O)[C@H]3O)ccc12 [4H-Xyl-MU, 4-Methylumbelliferyl-4-deoxy-β-D-xylopyranoside] | 1280 ± 220 | 530 ± 100
